Results from PMC7246905, “Exploring the Enzymatic and Antibacterial Activities of Novel Mycobacteriophage Lysin B Enzymes” (International Journal of Molecular Sciences, 2020).
Like-named read-outs stand apart in the source and are kept apart here.

How the values were obtained:
Details in all cases: 20 mM Tris-HCl, 100 mM NaCl, 0.1% Triton X-100, pH 8, 37 °C
LysB-Obama12 (LysB-His6) = assay: p-nitrophenol release at […] nm, Michaelis-Menten; type: biochemical, Mycobacterium phage Obama12
purified protein [1] = substrate: CCCCCCCCCCCC(=O)Oc1ccc([N+](=O)[O-])cc1; assay: purified protein; type: biochemical, Mycobacterium phage Saal
purified protein [2] = substrate: CCCCCCCCCCCCCC(=O)Oc1ccc([N+](=O)[O-])cc1; assay: purified protein; type: biochemical, Mycobacterium phage Saal
purified protein [3] = substrate: CCCC(=O)Oc1ccc([N+](=O)[O-])cc1; assay: purified protein; type: biochemical, Mycobacterium phage Saal
purified protein [4] = substrate: CCCCCCCCCCCCCCCC(=O)Oc1ccc([N+](=O)[O-])cc1; assay: purified protein; type: biochemical, Mycobacterium phage Saal
purified protein [5] = substrate: CCCCCCCC(=O)Oc1ccc([N+](=O)[O-])cc1; assay: purified protein; type: biochemical, Mycobacterium phage Saal
purified protein [6] = substrate: CCCCCCCCCCCC(=O)Oc1ccc([N+](=O)[O-])cc1; assay: purified protein; type: biochemical, Fromanvirus D29
purified protein [7] = substrate: CCCCCCCCCCCCCC(=O)Oc1ccc([N+](=O)[O-])cc1; assay: purified protein; type: biochemical, Fromanvirus D29
purified protein [8] = substrate: CCCC(=O)Oc1ccc([N+](=O)[O-])cc1; assay: purified protein; type: biochemical, Fromanvirus D29
purified protein [9] = substrate: CCCCCCCCCCCCCCCC(=O)Oc1ccc([N+](=O)[O-])cc1; assay: purified protein; type: biochemical, Fromanvirus D29
purified protein [10] = substrate: CCCCCCCC(=O)Oc1ccc([N+](=O)[O-])cc1; assay: purified protein; type: biochemical, Fromanvirus D29
purified protein [11] = substrate: CCCCCCCCCCCC(=O)Oc1ccc([N+](=O)[O-])cc1; assay: purified protein; type: biochemical, Mycobacterium phage Omega
purified protein [12] = substrate: CCCCCCCCCCCCCC(=O)Oc1ccc([N+](=O)[O-])cc1; assay: purified protein; type: biochemical, Mycobacterium phage Omega
purified protein [13] = substrate: CCCC(=O)Oc1ccc([N+](=O)[O-])cc1; assay: purified protein; type: biochemical, Mycobacterium phage Omega
purified protein [14] = substrate: CCCCCCCCCCCCCCCC(=O)Oc1ccc([N+](=O)[O-])cc1; assay: purified protein; type: biochemical, Mycobacterium phage Omega
purified protein [15] = substrate: CCCCCCCC(=O)Oc1ccc([N+](=O)[O-])cc1; assay: purified protein; type: biochemical, Mycobacterium phage Omega

`CCCCCCCCCCCCCC(=O)Oc1ccc([N+](=O)[O-])cc1` [p-nitrophenyl myristate] showed a Km (LysB-Obama12 (LysB-His6); read-out: pNPM (C14)) of 1270 ± 86.4 µM.

Molecule `CCCCCCCCCCCC(=O)Oc1ccc([N+](=O)[O-])cc1` [p-nitrophenyl laurate] has a Km (LysB-Obama12 (LysB-His6); read-out: pNPL (C12)) of 3000 ± 20.1 µM.

With `CCCCCCCCCCCCCCCC(=O)Oc1ccc([N+](=O)[O-])cc1` [p-nitrophenyl palmitate] the Km (LysB-Obama12 (LysB-His6); read-out: pNPP (C16)) was 800 ± 22.1 µM.

`CCCC(=O)Oc1ccc([N+](=O)[O-])cc1` [p-nitrophenyl butyrate] showed a Km (LysB-Obama12 (LysB-His6); read-out: pNPB (C4)) of 1270 ± 60 µM.

For `CCCCCCCC(=O)Oc1ccc([N+](=O)[O-])cc1` [p-nitrophenyl octanoate], the Km (LysB-Obama12 (LysB-His6); read-out: pNPO (C8)) was 2670 ± 46.5 µM.

B1: LysB-Saal (LysB-His6) (Mycobacterium phage Saal) (protein)
chain: MRIDGQYVGLGLGDSSDEIRKIKAFMRRKFASYAGDLADTPLYDEAMTAAVAEMQARYSAAGQLRAGLYIPGIVGAETKYVMGYLPRPVVDTRPVLITVCGTGVPWWIGPDADTARAVEDKYLWQPIGYPAAPFPMGKSIAAAITETHNQANRWRERIETHGAALAGYSQGAVVVSELWMNHIAPEDGSLHWMKPHIEKAVTWGNPNRELGHVWADHGGSPRAPSNTQGVSSNGMRDTPPWWRDYAHQGDLYACTEPGDTQEVRNAIWQIVRDLDLFTGPDSLLAQVVELVQAPLPEAIAITKALLDAGMFFAKRTGPHVDYNVQPAIDYLRT
B1 gave a Km (purified protein [1]) of 1476.39 ± 33.184 µM, a kcat/Km (purified protein [1]) of 71800 ± 3350 M⁻¹ s⁻¹ and a Km (purified protein [2]) of 956.7 ± 12.93 µM. The kcat/Km (purified protein [2]) was 54000 ± 3520 M⁻¹ s⁻¹, the Km (purified protein [3]) was 4172.12 ± 20.104 µM and the kcat/Km (purified protein [3]) was 44700 ± 7630 M⁻¹ s⁻¹. It also gave a Km (purified protein [4]) of 2833.32 ± 40.824 µM, a kcat/Km (purified protein [4]) of 19700 ± 2420 M⁻¹ s⁻¹ and a Km (purified protein [5]) of 1519.25 ± 38.596 µM. For the same molecule, the kcat/Km (purified protein [5]) was 20300 ± 230 M⁻¹ s⁻¹.

B2: LysB-D29 (LysB-His6) (Fromanvirus D29) (protein)
chain: MSKPWLFTVHGTGQPDPLGPGLPADTARDVLDIYRWQPIGNYPAAAFPMWPSVEKGVAELILQIELKLDADPYADFAMAGYSQGAIVVGQVLKHHILPPTGRLHRFLHRLKKVIFWGNPMRQKGFAHSDEWIHPVAAPDTLGILEDRLENLEQYGFEVRDYAHDGDMYASIKEDDLHEYEVAIGRIVMKASGFIGGRDSVVAQLIELGQRPITEGIALAGAIIDALTFFARSRMGDKWPHLYNRYPAVEFLRQI
Work on B2 yielded a Km (purified protein [6]) of 19.6 ± 3.094 µM, a Vmax (purified protein [6]) of 7.55 µmol/min/mg and a kcat (purified protein [6]) of 0.738 ± 0.026 s⁻¹. The kcat/Km (purified protein [6]) was 37700 ± 6030 M⁻¹ s⁻¹, the Km (purified protein [7]) was 24.08 ± 0.505 µM and the Vmax (purified protein [7]) was 3 µmol/min/mg. It also gave a kcat (purified protein [7]) of 0.294 ± 0.0159 s⁻¹, a kcat/Km (purified protein [7]) of 12200 ± 512 M⁻¹ s⁻¹ and a Km (purified protein [8]) of 422.6 ± 29.4 µM. For the same molecule, the Vmax (purified protein [8]) was 122 µmol/min/mg, the kcat (purified protein [8]) was 11.9 ± 0.187 s⁻¹ and the kcat/Km (purified protein [8]) was 28300 ± 6130 M⁻¹ s⁻¹. The Km (purified protein [9]) was 37.7 ± 7.134 µM, the Vmax (purified protein [9]) was 2.73 µmol/min/mg and the kcat (purified protein [9]) was 0.242 ± 0.0168 s⁻¹. For the same molecule, the kcat/Km (purified protein [9]) was 6330 ± 783 M⁻¹ s⁻¹, the Km (purified protein [10]) was 42.3 ± 0.445 µM and the Vmax (purified protein [10]) was 9.85 µmol/min/mg. The kcat (purified protein [10]) was 0.961 ± 0.213 s⁻¹ and the kcat/Km (purified protein [10]) was 22700 ± 723 M⁻¹ s⁻¹.

B3: LysB-Omega (LysB-His6) (Mycobacterium phage Omega) (protein)
chain: MSLWPEIRAMLNGEFYVPAGTIITANGTGVPDGAGPGFGADLARELERVAEGMWIWKWINYPAAVMPMRPSINTLRLALKEMIRTTPGKIVLSAYSQSAVAFAYVWRDDILNPDGELHDRLDDIVAVILYGNPVRAPGIAYGNELGGQSAPGKLNGHVTGGIAGPDCLRPEECVHPVTGRRIVLDFANAGDLYAAAPVGAEPWVKETEVGHNETLIYEAVMDFNGRDILAFAKEIAQILTMPLSQVVPLVQAIINGLSFLVQGPKAPHWTYTIGPAVDYLVRTGNELRKN
Molecule B3 has a Km (purified protein [11]) of 280.8 ± 3.26 µM, a Vmax (purified protein [11]) of 79.8 µmol/min/mg and a kcat (purified protein [11]) of 8.4 ± 0.339 s⁻¹. The kcat/Km (purified protein [11]) was 40200 ± 2260 M⁻¹ s⁻¹, the Km (purified protein [12]) was 98.72 ± 5.292 µM and the Vmax (purified protein [12]) was 22.3 µmol/min/mg. The kcat (purified protein [12]) was 2.35 ± 0.0785 s⁻¹, the kcat/Km (purified protein [12]) was 23800 ± 783 M⁻¹ s⁻¹ and the Km (purified protein [13]) was 618.8 ± 24.98 µM. It also gave a Vmax (purified protein [13]) of 112 µmol/min/mg, a kcat (purified protein [13]) of 11.7 ± 0.313 s⁻¹ and a kcat/Km (purified protein [13]) of 19000 ± 733 M⁻¹ s⁻¹. It also gave a Km (purified protein [14]) of 24.4 ± 3.116 µM, a Vmax (purified protein [14]) of 1.45 µmol/min/mg and a kcat (purified protein [14]) of 0.152 ± 0.0184 s⁻¹. It also gave a kcat/Km (purified protein [14]) of 6230 ± 4950 M⁻¹ s⁻¹, a Km (purified protein [15]) of 193.3 ± 2.258 µM and a Vmax (purified protein [15]) of 15.7 µmol/min/mg. The kcat (purified protein [15]) was 7.54 ± 0.165 s⁻¹ and the kcat/Km (purified protein [15]) was 39000 ± 6070 M⁻¹ s⁻¹.
